The record followed here is patent KR20240094169A (dated 2024).

Sequences and labels used below:
T1: BCMA (B-cell maturation antigen) expressed on multiple myeloma H929 cells (UniProt Q02223 1-184, limits assumed)
T1 construct: whole, on cells; also called TNFRSF17; CD269
T1 sequence (looked up): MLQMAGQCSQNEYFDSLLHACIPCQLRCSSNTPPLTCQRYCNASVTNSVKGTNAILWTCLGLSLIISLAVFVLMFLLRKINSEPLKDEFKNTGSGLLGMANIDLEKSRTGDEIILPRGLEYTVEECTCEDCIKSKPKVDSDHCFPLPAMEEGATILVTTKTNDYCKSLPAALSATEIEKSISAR

B1: 항-BCMA sdAb No.11 (VHH)
VHH: KLEESGGGSVQTGGSLRLTCAASGSISRLDNMGWFRQAPGKERELVAAINSKSNKTNYADSVKGRFTISRDNAKNTVDLQMNSLKPEDTAIYYCANWSFDKHRAYWGQGTQVTVSS
notes: Camel-derived single-domain antibody from a phage library; also called anti-BCMA sdAb No.11; 항-BCMA No.11
B2: 항-BCMA sdAb No.19 (VHH)
VHH: KLEESGGGSVQTGGSLRLTCAASGIIFSDDAIGWFRQAPGKERELVSLIDSKSSTYYADSVKGRFTISRDNAKNTVDLQMNSLKPEDTAIYYCNDHKRRQAMEYWGQGTQVTVSS
notes: Camel-derived single-domain antibody from a phage library; also called anti-BCMA sdAb No.19; 항-BCMA No.19
B3: 항-BCMA sdAb No.7 (VHH)
VHH: KLEESGGGSVQTGGSLRLTCAASGSIFSSGFMAWFRQAPGKEREFVSGISWRGDSTGYADSVKGRFTISRDNAKNTVDLQMNSLKPEDTAIYYCAARGTDTAYWGQGTQVTVSS
notes: Camel-derived single-domain antibody from a phage library; also called anti-BCMA sdAb No.7; 항-BCMA No.7

This assay concerns the target T1, BCMA (B-cell maturation antigen) …. The assay can be described thus: flow cytometry on H929 cells, 1 ㎍ sdAb, PE-conjugated secondary antibody. (A flow cytometer gives signals particle by particle.)
B1: the binding result is recorded as “binds”.

Turning to B2, the binding result is given as “binds”.

In the case of B3, the binding result is recorded as “binds”.
